The labels stand for the following.
B1: Serine/arginine-rich splicing factor 7 (Homo sapiens), Q16629 (parent)
chain: MSRYGRYGGETKVYVGNLGTGAGKGELERAFSYYGPLRTVWIARNPPGFAFVEFEDPRDAEDAVRGLDGKVICGSRVRVELSTGMPRRSRFDRPPARRPFDPNDRCYECGEKGHYAYDCHRYSRRRRSRSRSRSHSRSRGRRYSRSRSRSRGRRSRSASPRRSRSISLRRSRSASLRRSRSGSIKGSRYFQSPSRSRSRSRSISRPRSSRSKSRSPSPKRSRSPSGSPRRSASPERMD
partner: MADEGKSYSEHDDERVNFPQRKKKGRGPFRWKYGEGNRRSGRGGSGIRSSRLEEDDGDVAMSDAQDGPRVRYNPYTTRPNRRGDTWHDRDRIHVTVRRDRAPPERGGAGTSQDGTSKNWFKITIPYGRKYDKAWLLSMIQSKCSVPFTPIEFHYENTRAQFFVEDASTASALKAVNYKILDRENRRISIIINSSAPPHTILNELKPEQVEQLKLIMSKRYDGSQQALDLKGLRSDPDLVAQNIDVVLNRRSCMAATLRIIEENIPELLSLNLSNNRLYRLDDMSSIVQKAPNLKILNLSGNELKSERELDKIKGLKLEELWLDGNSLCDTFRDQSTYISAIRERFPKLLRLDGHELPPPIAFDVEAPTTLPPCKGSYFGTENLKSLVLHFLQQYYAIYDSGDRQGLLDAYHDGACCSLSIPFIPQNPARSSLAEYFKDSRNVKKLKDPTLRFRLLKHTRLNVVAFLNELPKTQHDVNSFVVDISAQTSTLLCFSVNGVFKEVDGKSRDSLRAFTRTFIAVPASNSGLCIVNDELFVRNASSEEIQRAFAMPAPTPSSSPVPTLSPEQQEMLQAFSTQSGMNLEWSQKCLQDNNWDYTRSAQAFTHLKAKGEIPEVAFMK
B2: Serine/arginine-rich splicing factor 3 (Homo sapiens), P84103 (parent)
chain: MHRDSCPLDCKVYVGNLGNNGNKTELERAFGYYGPLRSVWVARNPPGFAFVEFEDPRDAADAVRELDGRTLCGCRVRVELSNGEKRSRNRGPPPSWGRRPRDDYRRRSPPPRRRSPRRRSFSRSRSRSLSRDRRRERSLSRERNHKPSRSFSRSRSRSRSNERK
partner: B1 partner

In one assay the parent is B1. The following applies: with nxf1_human NXF1, Q9UBU9.
As for MSRYGRYGGETKVYVGNLGTGAGKGELERAFSYYGPLRTVWIARNPPGFAFVEFEDPRDAEDAVRGLDGKVICGSRVRVELSTGMPRESRFDRPPARRPFDPNDRCYECGEKGHYAYDCHRYSRRRRSRSRSRSHSRSRGRRYSRSRSRSRGRRSRSASPRRSRSISLRRSRSASLRRSRSGSIKGSRYFQSPSRSRSRSRSISRPRSSRSKSRSPSPKRSRSPSGSPRRSASPERMD [R88E], the “effect of a mutation on the interaction” value is on record as “disrupting interaction”.

In the case of MSRYGRYGGETKVYVGNLGTGAGKGELERAFSYYGPLRTVWIARNPPGFAFVEFEDPRDAEDAVRGLDGKVICGSRVRVELSTGMPERSRFDRPPARRPFDPNDRCYECGEKGHYAYDCHRYSRRRRSRSRSRSHSRSRGRRYSRSRSRSRGRRSRSASPRRSRSISLRRSRSASLRRSRSGSIKGSRYFQSPSRSRSRSRSISRPRSSRSKSRSPSPKRSRSPSGSPRRSASPERMD [R87E], the “effect of a mutation on the interaction” value was “disrupting interaction”.

The variants in the next assay derive from B1. The following applies: with nxf1_human NXF1, Q9UBU9. The source holds these as a separate data set.
With MSRYGRYGGETKVYVGNLGTGAGKGELERAFSYYGPLRTVWIARNPPGFAFVEFEDPRDAEDAVRGLDGKVICGSRVRVELSTGMPRRSRFDRPPAERPFDPNDRCYECGEKGHYAYDCHRYSRRRRSRSRSRSHSRSRGRRYSRSRSRSRGRRSRSASPRRSRSISLRRSRSASLRRSRSGSIKGSRYFQSPSRSRSRSRSISRPRSSRSKSRSPSPKRSRSPSGSPRRSASPERMD [R97E], the “effect of a mutation on the interaction” value is given as “disrupting interaction”.

For MSRYGRYGGETKVYVGNLGTGAGKGELERAFSYYGPLRTVWIARNPPGFAFVEFEDPRDAEDAVRGLDGKVICGSRVRVELSTGMPRRSRFDRPPAREPFDPNDRCYECGEKGHYAYDCHRYSRRRRSRSRSRSHSRSRGRRYSRSRSRSRGRRSRSASPRRSRSISLRRSRSASLRRSRSGSIKGSRYFQSPSRSRSRSRSISRPRSSRSKSRSPSPKRSRSPSGSPRRSASPERMD [R98E], the “effect of a mutation on the interaction” value is recorded as “disrupting interaction”.

The variants in another assay derive from B2. The following applies: with nxf1_human NXF1, Q9UBU9.
As for MHRDSCPLDCKVYVGNLGNNGNKTELERAFGYYGPLRSVWVARNPPGFAFVEFEDPRDAADAVRELDGRTLCGCRVRVELSNGEKRSENRGPPPSWGRRPRDDYRRRSPPPRRRSPRRRSFSRSRSRSLSRDRRRERSLSRERNHKPSRSFSRSRSRSRSNERK, the “effect of a mutation on the interaction” value was “disrupting interaction”.

In another assay the parent is B2. The note with it: with nxf1_human NXF1, Q9UBU9. This is another data set of the same source.
In the case of MHRDSCPLDCKVYVGNLGNNGNKTELERAFGYYGPLRSVWVARNPPGFAFVEFEDPRDAADAVRELDGRTLCGCRVRVELSNGEKESRNRGPPPSWGRRPRDDYRRRSPPPRRRSPRRRSFSRSRSRSLSRDRRRERSLSRERNHKPSRSFSRSRSRSRSNERK, the “effect of a mutation on the interaction” value was “disrupting interaction”.

Another assay covers variants of B2. The note with it: with nxf1_human NXF1, Q9UBU9. The source holds these as a separate data set.
MHRDSCPLDCKVYVGNLGNNGNKTELERAFGYYGPLRSVWVARNPPGFAFVEFEDPRDAADAVRELDGRTLCGCRVRVELSNGEKRSRNEGPPPSWGRRPRDDYRRRSPPPRRRSPRRRSFSRSRSRSLSRDRRRERSLSRERNHKPSRSFSRSRSRSRSNERK: the “effect of a mutation on the interaction” value is listed as “disrupting interaction”.

These data come from IntAct's records for PubMed 17036044.
